These results are taken from patent US20200407442A1.

For test [1], the target named is full-length cynomolgus LAG-3 on cells (cynomolgus). In words: FACS on cynomolgus LAG-3-expressing 293F cells (target not labelled in the table).
Target sequence in this assay (P18627 other isoform, or with tags, fused parts or gaps limits assumed, form in doubt): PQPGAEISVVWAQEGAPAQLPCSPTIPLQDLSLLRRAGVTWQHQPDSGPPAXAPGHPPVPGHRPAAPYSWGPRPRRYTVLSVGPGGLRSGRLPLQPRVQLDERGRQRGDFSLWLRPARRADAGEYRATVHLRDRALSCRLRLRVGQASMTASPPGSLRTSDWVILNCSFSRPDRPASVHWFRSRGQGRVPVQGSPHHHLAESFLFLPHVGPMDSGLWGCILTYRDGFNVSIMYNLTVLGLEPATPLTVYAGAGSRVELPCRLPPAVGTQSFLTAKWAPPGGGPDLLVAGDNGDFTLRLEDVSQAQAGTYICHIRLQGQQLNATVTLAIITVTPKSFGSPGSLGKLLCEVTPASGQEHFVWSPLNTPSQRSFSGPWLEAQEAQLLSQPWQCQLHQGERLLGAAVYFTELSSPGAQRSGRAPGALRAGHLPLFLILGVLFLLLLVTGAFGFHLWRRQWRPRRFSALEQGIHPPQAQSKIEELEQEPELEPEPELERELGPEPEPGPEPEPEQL
Test [2] has as its target full-length human LAG-3 on cells (human) (UniProt P18627). The experiment in a line: FACS on human LAG-3 transfectant cells.
The target of test [3] is human LAG-3 protein (SPR analyte) (human) (UniProt P18627). The experiment in a line: SPR Biacore 8K, antibody captured by anti-human Fc, LAG-3 as analyte. (SPR reads the build-up and loss of mass on a sensor chip optically.)
In test [4] the target is mFc-tagged LAG-3 protein (human) (UniProt P18627). In words: ELISA competition: blocks mFc-tagged LAG-3 binding to coated Galectin-3. In general terms: In an ELISA, binding on a coated surface is turned into a signal by an enzyme label.
Test [5] addresses full-length human LAG-3 on cells (human) (UniProt P18627). In words: cell-based or functional assay.
In test [6] the target is mFc-tagged LAG-3 protein (human) (UniProt P18627). The experiment in a line: FACS competition: blocks mFc-tagged LAG-3 binding to MHC-II on Raji cells.
The target in test [7] is full-length cynomolgus LAG-3 on cells (cynomolgus). The experiment in a line: FACS on cynomolgus LAG-3-expressing 293F cells (target not labelled in the table). The source holds these as a separate data set.
Target sequence in this assay (P18627 other isoform, or with tags, fused parts or gaps limits assumed, form in doubt): as above
Test [8] deals with mFc-tagged LAG-3 protein (human) (UniProt P18627). The experiment in a line: ELISA competition: blocks mFc-tagged LAG-3 binding to coated LSECtin.
Test [9] concerns the target full-length human LAG-3 on cells (human) (UniProt P18627). In words: FACS affinity on Flp-In-293 cells expressing human LAG-3.

Positions count from the first letter of the chain named. Where two headings read alike, the source gives them in different places.

One may read the EC50 as the concentration that produces a half-maximal response. Lower therefore signals an effect from little substance. By Kd is commonly meant the constant that tells how readily two partners part at equilibrium. By koff is commonly meant a measure of how fast the partners let go of each other. Low readings indicate a long-lived complex, high ones a short-lived complex. A word on the kon: it is the second-order rate constant of association.

Chain of mFc-tagged LAG-3 protein (human) (P18627 30-450): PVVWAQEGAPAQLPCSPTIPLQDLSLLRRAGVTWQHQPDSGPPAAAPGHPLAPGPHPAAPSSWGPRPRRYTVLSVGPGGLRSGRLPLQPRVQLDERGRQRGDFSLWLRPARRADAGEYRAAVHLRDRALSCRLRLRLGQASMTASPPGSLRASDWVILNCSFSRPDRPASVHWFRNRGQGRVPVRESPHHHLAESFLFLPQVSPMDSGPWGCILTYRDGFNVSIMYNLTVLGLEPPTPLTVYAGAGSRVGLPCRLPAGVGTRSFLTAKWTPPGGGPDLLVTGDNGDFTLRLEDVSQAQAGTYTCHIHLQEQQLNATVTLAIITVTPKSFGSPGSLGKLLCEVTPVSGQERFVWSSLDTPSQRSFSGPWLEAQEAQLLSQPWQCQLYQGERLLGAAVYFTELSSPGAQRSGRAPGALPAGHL
Chain of human LAG-3 protein (SPR analyte) (human) (P18627 30-450 limits assumed): as the sequence (P18627 30-450) above
Chain of full-length human LAG-3 on cells (human) (P18627 23-525 limits assumed): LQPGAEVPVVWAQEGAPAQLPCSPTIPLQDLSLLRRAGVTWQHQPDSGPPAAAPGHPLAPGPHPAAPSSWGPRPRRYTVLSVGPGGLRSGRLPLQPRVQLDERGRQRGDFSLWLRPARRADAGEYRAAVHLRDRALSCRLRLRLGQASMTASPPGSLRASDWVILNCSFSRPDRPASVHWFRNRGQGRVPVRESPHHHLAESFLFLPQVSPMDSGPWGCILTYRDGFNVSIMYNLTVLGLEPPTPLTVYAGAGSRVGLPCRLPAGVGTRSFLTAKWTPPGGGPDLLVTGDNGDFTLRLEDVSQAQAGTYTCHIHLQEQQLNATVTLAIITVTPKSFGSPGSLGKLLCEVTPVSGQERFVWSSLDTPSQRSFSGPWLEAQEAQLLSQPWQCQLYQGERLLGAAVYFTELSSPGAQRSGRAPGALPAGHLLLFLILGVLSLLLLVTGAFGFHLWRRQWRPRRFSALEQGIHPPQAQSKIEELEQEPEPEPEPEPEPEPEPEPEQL

B1: 3.40.19-uAb-IgG4L (antibody, V domains shown)
VH: QLQLQESGPGLVKPSETLSLTCTVSGDSISSTSYYWGWIRQPPGKGLEWIGSFYYSGSTYYNPSLKSRVTISVDTSKNQFSLKLNSVTAADTAVYYCARMQLWSYDVDVWGQGTTVTVSS
VL: QSALTQPASVSGSPGQSITISCTGTSSDVGGYDYVAWYQQHPGKVPKLMIYDVSERPSGVSNRFSGSKSGNTASLTISGLQAEDEADYYCSSYTSTTTLVVFGGGTKLSVL
Regarding B1, the EC50 in test [1] turned out to be 3.92 nM.

B2: BMK7 (antibody, INN chains, looked up, V domains shown)
VH: QVQLVESGGGVVQPGRSLRLSCVASGFTFSSYGMHWVRQAPGKGLEWVAIIWYDGSNKYYADSVKGRFTISRDNSKNTQYLQMNSLRAEDTAVYYCASVATSGDFDYYGMDVWGQGTTVTVSS
VL: EIVLTQSPATLSLSPGERTTLSCRASQRISTYLAWYQQKPGQAPRLLIYDASKRATGIPARFSGSGSGTGFTLTISSLEPEDFAVYYCQQRSNWPLTFGGGTKVEIK
With B2, the EC50 in [2] stood at 0.61 nM; in test [4], 0.79 nM; in test [6], 1.25 nM; in test [7], 2.65 nM; in [8] it was 0.59 nM. Further, the values for the Kd in test [3] and in [9] were 0.497 nM and 0.58 nM, respectively. Besides, the koff in test [3] was 0.000106 s⁻¹. The same molecule returned a kon in test [3] of 213000 M⁻¹ s⁻¹. In test [5], this molecule came in with an EC50, IL-2 luciferase reporter gene assay (Jurkat cells expressing human LAG-3 with Raji cells and SEE) of 2.65 nM.

B3: 1.53.3-uAb-IgG4k (antibody, V domains shown)
VH: QVQLQQWGAGLLKPSETLSLTCGVYGGSFSGYYWSWIRQPPGMGLEWIGEINHRGNTNYNPSLKSRVTISEDTSKNQFSLRLSSVTAADTAVYFCTRGEDYSDYDYYGDFWGQGTLVTVSS
VL: B2 VL with P15Q, T19A, R28S, T31S, D50A, K53N, G70D, V85I
Consider B3, for which, in test [1], the EC50 was 4.01 nM.
